Laboratory results: US7425333B2, “Hypoallergenic allergy vaccines based on the timothy grass pollen allergen Phl p 7” (Biomay Produktions-und Handels-Aktiengesellschaft, priority 2002, dated 2008)
Changes are numbered by the printed parent chain. In names and notes the source's numbering stands.

How the values were obtained:
[1] = Secondary structure analysis by far-UV CD; format: physicochemical; conditions: for secondary structure (far-UV CD spectra): 20° C., 0.1 cm cell
Description: CD measurements were carried out on a Jasco J-715 spectropolarimeter using a 0.1 cm pathlength cell equilibrated at 20° C. Spectra were recorded with 0.5 nm resolution at a scan speed of 100 nm/min and resulted from averaging 3 scans. The final spectra were baseline-corrected by subtracting the corresponding MilliQ spectra obtained under identical conditions. Results were fitted with the secondary structure estimation program J-700.

[2] = tested on: timothy grass pollen allergic patients and a non-atopic individual; experiment: Skin prick testing (SPT), immediate type skin reactions; format: in vivo, human; conditions: for mean wheal diameter: 8 μg/ml, timothy grass pollen allergic patients, 20 minutes; for skin reactions in the non-allergic individual: non-allergic individual (#4)
Description: The in vivo allergenic activity of the peptides and the mutant was studied by skin prick testing (SPT) in 3 timothy grass pollen allergic patients and a non-atopic individual. SPTs were performed on the individuals' forearms. Twenty microliter aliquots containing 2 concentrations of complete rPhl p 7 or Phl p 7-derived mutant M4 (2 μg/ml, 8 μg/ml) as well as two concentrations of Phl p 7-derived peptides (1 μg/ml m, 4 μg/ml ) were applied. In addition, standardized skin prick solutions (timothy grass pollen extract and histamine) (Allergopharma, Reinbeck, Germany) were tested. Reactions were recorded 20 minutes after SPT by photography and by transferring the ballpoint pen-surrounded wheal area with a scotch tape to paper. The mean wheal diameter (Dm) was calculated by measuring the maximal longitudinal and transversal diameter and dividing their sum by 2.

Solubility observation = format: physicochemical
[3] = tested on: basophils of a timothy grass pollen allergic individual; experiment: Basophil histamine release; format: cell-based, human; conditions: granulocytes of one allergic individual; for concentration of maximum histamine release: 10^−6-10 μg/ml tested
Description: FIG. 3A, B. Induction of histamine release from basophils of a timothy grass pollen allergic patient. Granulocytes of a timothy grass pollen allergic patient were incubated with various concentrations (x-axis) of rPhl p 7 wild type (P7), Phl p 7-derived peptides (P1, P2), Phl p 7-derived mutant (M4) or another antigen (Hom s 4) (FIG. 3A).
Granulocytes were isolated from heparinized blood samples of a timothy grass pollen allergic individual by dextran sedimentation. Cells were incubated with increasing concentrations (10^−6-10 μg/ml) of each peptide or the mutant, and, for control purposes, with rPhl p 7 wild type. Histamine released in the cell-free culture supernatant was measured by radioimmunoassay (Immunotech, Marseille, France). Total histamine was determined after freezing and thawing of the cells.

[4] = tested on: serum IgE of Phl p 7-sensitized grass pollen allergic patients; experiment: IgE binding, dot blot with sera from ten timothy grass pollen allergic patients; set-up: species or system human
Source text: The polypeptides of the invention show reduced binding to IgE antibodies from timothy grass pollen allergic patients compared with wild type Phl p 7 (SEQ ID NO:1). […] Recombinant Phl p 7 consisting substantially of the amino acid sequence as shown in SEQ ID NO:1 can be used to determine the IgE binding activity of wild type Phl p 7. IgE binding of polypeptides may be determined by Western blot analysis or dot blot experiments using serum from a timothy grass pollen allergic patient. Timothy grass pollen allergy is diagnosed according to a case history indicative for timothy grass pollen allergy (i.e., seasonal symptoms of allergy during the flowering period of grasses), positive skin test reaction to timothy grass pollen allergens and/or the detection of specific IgE antibodies to timothy grass pollen allergens in serum. Dot blots can be quantified by measuring the amount of ^125I-labeled anti-human IgE antibodies by gamma counting as described (Niederberger et al. J. Allergy Clin. Immunol. 1998, 102, 579-591).
(§1) Nitrocellulose blotted rPhl p 7 (lane Phl p 7) and rPhl p 7-derived mutants (lanes M1.6, M2A, M4) were probed with serum from a Phl p 7-sensitized grass pollen allergic patient. Bound IgE antibodies were detected with ^125I-labeled anti human IgE antibodies (FIG. 2A). Nitrocellulose dotted Phl p 7 and Phl p 7-derived mutants (M1.6, M2A, M4) as well the Phl p 7-derived peptides were probed with sera from ten Phl p 7-sensitized grass pollen allergic patients. Bound IgE antibodies were detected with ^125I-labeled anti human IgE antibodies (FIG. 2B).
(§2) The IgE binding capacity of purified Phl p 7-derived mutants (M1.6, M2A, M4) was compared with that of Phl p 7 wild type by western blot analysis using serum from a timothy grass pollen allergic patient (FIG. 2A) as well as by dot blot experiments using sera from ten timothy grass pollen allergic patients (FIG. 2B).
The IgE binding capacity of Phl p 7-derived peptides was compared with that of Phl p 7 wild type by dot blot experiments using sera from ten timothy grass pollen allergic patients (FIG. 2B). For both peptides the IgE binding capacity was completely abolished, when tested with serum from ten timothy grass pollen allergic patients.

rPhl p 7 wild type = experiment: Rabbit immunization, IgG reactivity with Phl p 7 by dot blot; format: in vivo; conditions: rabbits, 200 μg/injection, Freund's adjuvant; antiserum 1:500-1:2000
recombinant Aln g 4 = experiment: Rabbit immunization, antiserum reactivity with Aln g 4 by dot blot; format: in vivo; conditions: rabbit antiserum diluted 1:1000
[5] = tested on: serum IgE of a Phl p 7-sensitized grass pollen allergic patient; experiment: IgE binding, western blot with serum of a timothy grass pollen allergic patient; set-up: species or system human; conditions: serum from one timothy grass pollen allergic patient
Source text: as §1, §2

Sequence of recombinant Aln g 4 (O81701 whole entry): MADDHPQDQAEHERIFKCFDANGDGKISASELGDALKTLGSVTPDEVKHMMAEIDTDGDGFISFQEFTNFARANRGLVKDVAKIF

N-terminal peptide: synthetic peptide comprising the complete N-terminal calcium-binding domain of Phl p 7 (SEQ ID NO:2), one cysteine added
secondary structure (far-UV CD spectra) [1]: random coil secondary structure

NCCc1c[nH]cn1 [histamine, reference compound]
skin reaction to positive control ([2]; all individuals (3 allergic, 1 non-allergic)): All individuals reacted

C-terminal peptide: synthetic peptide comprising the complete C-terminal calcium-binding domain of Phl p 7 (SEQ ID NO:3), one cysteine added
solubility (Solubility observation): significant decreased solubility and precipitation
secondary structure (far-UV CD spectra) [1]: unfolded

B1: Phl p 7 wild type: recombinantly produced wild type timothy grass pollen allergen Phl p 7, amino acid sequence SEQ ID NO:1 (protein)
chain: MADDMERIFKRFDTNGDGKISLSELTDALRTLGSTSADEVQRMMAEIDTDGDGFIDFNEFISFCNANPGLMKDVAKVF
modifications: Phleum pratense
immediate type skin reactions ([2]; skin prick test, 2 μg/ml): induced immediate type skin reactions
mean wheal diameter ([2]; skin prick test): 9.3 mm
skin reactions in the non-allergic individual ([2]; skin prick test): no reactions
secondary structure (far-UV CD spectra) [1]: significant larger α-helical signal
concentration of maximum histamine release [3]: 10^−4 μg/ml

B2: M1.6: Phl p 7-derived mutant, SEQ ID NO:4: 24E→24A (first EF-hand); 59E→59A (second EF-hand) (protein)
chain: B1 chain with E24A, E59A
patients whose serum IgE bound (dot blot) [4]: six out of ten

B3: M4: Phl p 7-derived mutant, SEQ ID NO:6: 17D→A, 24E→24A; 52D→52A, 59E→59A (protein)
chain: B1 chain with D17A, E24A, D52A, E59A
mean wheal diameter ([2]; skin prick test): 7 mm
immediate skin reactions compared with Phl p 7 wild type ([2]; skin prick test, allergic patients): moderately weaker
skin reactions in the non-allergic individual ([2]; skin prick test): no reactions
secondary structure (far-UV CD spectra) [1]: increasing portion of random-coil secondary structure
decrease of CD signal in contrast to normalized spectrum of rPhl p 7 ([1]; second analysis comparing Phl p 7 and point mutant-4): approximately 20%
patients whose serum IgE bound (dot blot) [4]: four out of ten
IgE binding capacity (dot blot) ([4]; compared with Phl p 7 wild type): strongest reduction of IgE binding capacity
induction of IgG anti-Phl p 7 antibody response (rPhl p 7 wild type): induced IgG anti-Phl p 7 antibody responses
concentration of maximum histamine release [3]: 10^−3 μg/ml
induction of histamine release ([3]; increasing concentrations): dose-dependent release of histamine
recognition of cross-reactive allergen Aln g 4 by rabbit antiserum raised against the immunogen (recombinant Aln g 4): recognized the Phl p 7-cross-reactive allergen, Aln g 4
IgE binding capacity compared to Phl p 7 (western blot) [5]: strongest reduction

B4: M2A: Phl p 7-derived mutant, SEQ ID NO:5: 17D→A, 24E→24A; 59E→59A (protein)
chain: B1 chain with D17A, E24A, E59A
patients whose serum IgE bound (dot blot) [4]: five out of ten
